Experimental data reported in the supplement of paper PMC11908140.

B1: library; numbered along this chain (parent)
chain: MRKPRAAVGSGHRKQAASQEGRQKHAKNNSQAKPSACDGLARQPEEVVLQASVSSYHLFRDVAEVTAFRGSLLSWYDQEKRDLPWRRRAEDEMDLDRRAYAVWVSEVMLQQTQVATVINYYTGWMQKWPTLQDLASASLEEVNQLWAGLGYYSRGRRLQEGARKVVEELGGHMPRTAETLQQLLPGVGRYTAGAIASIAFGQATGVVDGNVARVLCRVRAIGADPSSTLVSQQLWGLAQQLVDPARPGDFNQAAMELGATVCTPQRPLCSQCPVESLCRARQRVEQEQLLASGSLSGSPDVEECAPNTGQCHLCLPPSEPWDQTLGVVNFPRKASRKPPREESSATCVLEQPGALGAQILLVQRPNSGLLAGLWEFPSVTWEPSEQLQRKALLQELQRWAGPLPATHLRHLGEVVHTFSHIKLTYQVYGLALEGQTPVTTVPPGARWLTQEEFHTAAVSTAMKKVFRVYQGQQPGTCMGSKRSQVSSPCSRKKPRMGQQVLDNFFRSHISTDAHSLNSAAQ

Variants of: B1
Test: 8OG:A repair function score (normalized; synonymous = 0, nonsense = -1) (normalized log-likelihood score); higher = more repair activity (WT-like)
Settings: with 8OG:A DNA repair reporter (GFP) in HEK-293 MUTYH KO cells
Summary of the method: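 With 10 pg/ml doxycycline, MUTYH knockout HEK-293 cells carrying lentiviral MUTYH cDNA NNN codon-scan libraries were co-transfected with mCherry and an 8OG:A GFP repair reporter. Viable mCherry+ cells were sorted into GFP+ (repair) and GFP− bins at 72 h, three replicates per tile, and tile amplicons were sequenced. Per-tile Rosace fitness scores were then normalized into a repair function score anchored on synonymous and nonsense distributions. Medians were fixed at 0 for synonymous and -1 for nonsense, excluding variants under 300 counts per million at the start.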

Variant	8OG:A repair function score
S490H	-0.00447
E285P	-0.129
W399Q	-0.108
G326D	-0.344
R175E	0.0279
D91F	0.00319
E342Y	-0.0601
A63F	-0.142
F418E	-0.889
D82A	-0.0548
V104L	-0.583
E45S	-0.0822
S459T	-0.392
R491W	-0.00998
N251F	-1.03
S136E	0.0125
Q470R	-0.00198
S296Y	0.0195
P267E	-0.836
P84C	-0.445
Q386V	-0.383

Variant	8OG:A repair function score
C262I	-1.12
A259V	-0.765
C477S	-0.00994
A456N	-0.487
R88L	0.00676
T308D	-0.0467
V362L	-0.0488
S344R	-0.0609
F250P	-1.03
R163L	-0.128
M462H	-0.138
L229N	-0.25
Y151M	-0.45
S296P	-0.00535
G444D	-0.275
P442Y	-0.28
C278R	-1.27
L408V	-0.347
R157A	-0.14
V48I	0.0882
N329C	-0.102

Variant	8OG:A repair function score
W235P	-1
C347A	-0.0315
Q388A	0.235
A135Y	-0.211
L145I	-0.102
N366V	-0.0917
A177G	-0.166
Y121F	-0.109
D133M	0.0651
P331G	-0.0671
E64V	-0.0293
P474L	0.0136
G326H	-0.203
V214M	-0.207
P306W	-0.009
F505C	0.0238
R157Q	-0.117
D502I	-0.0355
Q363W	-0.451
Q473R	0.00304
R42H	0.0289

Variant	8OG:A repair function score
Q232K	-0.0471
L396M	-0.451
N143C	-0.216
S344K	0.0408
Y190K	-1.27
K463Y	-0.191
C314K	-0.485
V379K	-0.667
S384E	0.0681
Q50T	-0.147
G475R	0.00413
A115S	-0.0518
G368W	-0.913
Q113S	-0.0696
E140M	-0.00715
V62G	0.0052
K390N	0.177
D512Y	-0.0038
P365V	0.0242
E385C	0.258
